The record followed here is PMC10843684 (Molecular cell, 2023).

Experiment in all cases: cryo-EM structure
One assay has as its target Chelator-GID^SR4 (S. cerevisiae, UniProt P53076 1-958; P40208 1-455; P40547 1-921; P38263 1-362; Q12508 1-421; P40492 …).
Assay [1] deals with T1, RMND5A (RING subunit of the CTLH E3 catalytic module) (human, UniProt Q9H871 1-391).
T1 sequence: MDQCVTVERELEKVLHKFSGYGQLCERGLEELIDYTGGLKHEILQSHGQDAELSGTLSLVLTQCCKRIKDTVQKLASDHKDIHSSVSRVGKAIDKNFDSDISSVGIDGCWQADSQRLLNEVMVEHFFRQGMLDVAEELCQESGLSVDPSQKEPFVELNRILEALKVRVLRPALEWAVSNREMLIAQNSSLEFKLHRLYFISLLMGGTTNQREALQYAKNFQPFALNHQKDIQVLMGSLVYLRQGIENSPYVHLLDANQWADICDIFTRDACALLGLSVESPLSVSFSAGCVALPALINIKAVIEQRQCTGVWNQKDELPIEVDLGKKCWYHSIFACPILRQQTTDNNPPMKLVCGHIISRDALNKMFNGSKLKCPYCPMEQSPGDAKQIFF

In assay [2] the target is T2, MAEA (U-box subunit of the CTLH E3 catalytic module) (human, UniProt Q7L5Y9 1-396).
T2 sequence: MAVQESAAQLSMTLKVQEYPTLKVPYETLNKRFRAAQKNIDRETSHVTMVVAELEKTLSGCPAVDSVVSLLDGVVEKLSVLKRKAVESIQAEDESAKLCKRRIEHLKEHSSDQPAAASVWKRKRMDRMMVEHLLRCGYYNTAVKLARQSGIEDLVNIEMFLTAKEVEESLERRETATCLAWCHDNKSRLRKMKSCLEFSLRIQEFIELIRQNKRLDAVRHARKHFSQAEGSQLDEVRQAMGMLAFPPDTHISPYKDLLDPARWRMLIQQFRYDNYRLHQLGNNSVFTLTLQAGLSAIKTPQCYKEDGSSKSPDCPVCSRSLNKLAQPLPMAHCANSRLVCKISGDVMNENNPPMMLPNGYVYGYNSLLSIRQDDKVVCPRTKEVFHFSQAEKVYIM

B1: Fbp1-6xHis (fructose-1,6-bisphosphatase) (natural protein, S. cerevisiae)
chain: MPTLVNGPRRDSTEGFDTDIITLPRFIIEHQKQFKNATGDFTLVLNALQFAFKFVSHTIRRAELVNLVGLAGASNFTGDQQKKLDVLGDEIFINAMRASGIIKVLVSEEQEDLIVFPTNTGSYAVCCDPIDGSSNLDAGVSVGTIASIFRLLPDSSGTINDVLRCGKEMVAACYAMYGSSTHLVLTLGDGVDGFTLDTNLGEFILTHPNLRIPPQKAIYSINEGNTLYWNETIRTFIEKVKQPQADNNNKPFSARYVGSMVADVHRTFLYGGLFAYPCDKKSPNGKLRLLYEAFPMAFLMEQAGGKAVNDRGERILDLVPSHIHDKSSIWLGSSGEIDKFLDHIGKSQ
B1: the binding result with Chelator-GID^SR4 is listed as “binds”.

B2: UBE2H C87K, insect cell-expressed and fully phosphorylated with CK2 (the E2 chain of the UBE2H~ubiquitin mimic) (enzyme, human, UniProt P62256 1-183, looked up)
chain: MSSPSPGKRRMDTDVVKLIESKHEVTILGGLNEFVVKFYGPQGTPYEGGVWKVRVDLPDKYPFKSPSIGFMNKIFHPNIDEASGTVKLDVINQTWTALYDLTNIFESFLPQLLAYPNPIDPLNGDAAAMYLHRPEEYKQKIKEYIQKYATEEALKEQEEGTGDSSSESSMSDFSEDEAQDMEL
modifications: phosphoserines 164, 165, 166, 168, 169, 171 and 174; K87 isopeptide-bonded to ubiquitin
As for B2, the binding result in assay [1] and in assay [2] was “binds” in each case.
